According to US20210388087A1:
Numbering of substitutions follows the chain as printed. In names and notes the source's numbering stands.

Key:
Human CD137 ECD (human) [1] = assay: single mutant vs template dBBDu183H
Human CD137 ECD (human) [2] = assay: SPR, vs parent H183/L072

Chain of Human CD137 ECD (human) (chain, as listed by the source limits assumed): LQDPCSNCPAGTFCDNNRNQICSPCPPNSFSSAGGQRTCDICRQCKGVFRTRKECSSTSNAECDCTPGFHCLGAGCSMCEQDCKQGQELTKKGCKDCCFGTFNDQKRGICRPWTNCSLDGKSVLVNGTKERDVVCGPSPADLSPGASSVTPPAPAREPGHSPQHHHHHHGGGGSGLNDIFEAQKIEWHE

B1: H183/L072 VH F29A (antibody, name in Kabat numbering, V domains shown)
VH: QVQLVESGGGLVQPGRSLRLSCAASGFTASNAWMHWVRQAPGKGLEWVAQIKDKGNAYAAYYAPSVKGRFTISRDDSKNSIYLQMNSLKTEDTAVYYCHYVHYASASTVLPAFGVDAWGQGTTVTVSS
VL: DIVMTQSPLSLPVTPGEPASISCQASQELVHMNRNTYLHWYQQKPGQAPRLLIYKVSNRFPGVPDRFSGSGSGTDFTLKISRVEAEDVGVYYCAQGTSVPFTFGQGTKLEIK
fold change of affinity (Human CD137 ECD (human) [1]): 0 fold

B2: H183/L072 VH N53L (antibody, name in Kabat numbering, V domains shown)
VH: B1 VH with A29F, N56L
VL: B1 VL
fold change of affinity (Human CD137 ECD (human) [1]): 0 fold

B3: H183/L072 VH K52A (antibody, name in Kabat numbering, V domains shown)
VH: B1 VH with A29F, K52A
VL: B1 VL
fold change of affinity (Human CD137 ECD (human) [1]): 0 fold

B4: dBBDu183H D101Y / dBBDu072L (antibody, name in Kabat numbering, V domains shown)
VH: B1 VH with A29F, D116Y
VL: B1 VL
fold change of affinity (Human CD137 ECD (human) [2]): 0 fold

B5: dBBDu183H S100aY / dBBDu072L (antibody, name in Kabat numbering, V domains shown)
VH: B1 VH with A29F, S107Y
VL: B1 VL
fold change of affinity (Human CD137 ECD (human) [2]): 0 fold

B6: H183/L072 VH Q50A (antibody, name in Kabat numbering, V domains shown)
VH: B1 VH with A29F, Q50A
VL: B1 VL
fold change of affinity (Human CD137 ECD (human) [1]): 0 fold

B7: dBBDu183H H93Y / dBBDu072L (antibody, name in Kabat numbering, V domains shown)
VH: B1 VH with A29F, H99Y
VL: B1 VL
fold change of affinity (Human CD137 ECD (human) [2]): 0 fold

B8: dBBDu183H T100bY / dBBDu072L (antibody, name in Kabat numbering, V domains shown)
VH: B1 VH with A29F, T108Y
VL: B1 VL
fold change of affinity (Human CD137 ECD (human) [2]): 0 fold

B9: dBBDu183H V95Y / dBBDu072L (antibody, name in Kabat numbering, V domains shown)
VH: B1 VH with A29F, V101Y
VL: B1 VL
fold change of affinity (Human CD137 ECD (human) [2]): 0 fold

B10: dBBDu183H G100hY / dBBDu072L (antibody, name in Kabat numbering, V domains shown)
VH: B1 VH with A29F, G114Y
VL: B1 VL
fold change of affinity (Human CD137 ECD (human) [2]): 0 fold

B11: dBBDu183H A102Y / dBBDu072L (antibody, name in Kabat numbering, V domains shown)
VH: B1 VH with A29F, A117Y
VL: B1 VL
fold change of affinity (Human CD137 ECD (human) [2]): 0 fold

B12: dBBDu183H A102W / dBBDu072L (antibody, name in Kabat numbering, V domains shown)
VH: B1 VH with A29F, A117W
VL: B1 VL
fold change of affinity (Human CD137 ECD (human) [2]): 0 fold

B13: H183/L072 VH H35A (antibody, name in Kabat numbering, V domains shown)
VH: B1 VH with A29F, H35A
VL: B1 VL
fold change of affinity (Human CD137 ECD (human) [1]): 0 fold

B14: H183/L072 VH N31M (antibody, name in Kabat numbering, V domains shown)
VH: B1 VH with A29F, N31M
VL: B1 VL
fold change of affinity (Human CD137 ECD (human) [1]): 0 fold

B15: H183/L072 VH I51P (antibody, name in Kabat numbering, V domains shown)
VH: B1 VH with A29F, I51P
VL: B1 VL
fold change of affinity (Human CD137 ECD (human) [1]): 0 fold

B16: H183/L072 VH A32P (antibody, name in Kabat numbering, V domains shown)
VH: B1 VH with A29F, A32P
VL: B1 VL
fold change of affinity (Human CD137 ECD (human) [1]): 0 fold

B17: dBBDu183H D101W / dBBDu072L (antibody, name in Kabat numbering, V domains shown)
VH: B1 VH with A29F, D116W
VL: B1 VL
fold change of affinity (Human CD137 ECD (human) [2]): 0 fold

B18: dBBDu183H A100fY / dBBDu072L (antibody, name in Kabat numbering, V domains shown)
VH: B1 VH with A29F, A112Y
VL: B1 VL
fold change of affinity (Human CD137 ECD (human) [2]): 0 fold

B19: H183/L072 VH D52aL (antibody, name in Kabat numbering, V domains shown)
VH: B1 VH with A29F, D53L
VL: B1 VL
fold change of affinity (Human CD137 ECD (human) [1]): 0 fold

B20: H183/L072 VH N53I (antibody, name in Kabat numbering, V domains shown)
VH: B1 VH with A29F, N56I
VL: B1 VL
fold change of affinity (Human CD137 ECD (human) [1]): 0 fold

B21: H183/L072 VH D52aM (antibody, name in Kabat numbering, V domains shown)
VH: B1 VH with A29F, D53M
VL: B1 VL
fold change of affinity (Human CD137 ECD (human) [1]): 0 fold

B22: dBBDu183H V100iY / dBBDu072L (antibody, name in Kabat numbering, V domains shown)
VH: B1 VH with A29F, V115Y
VL: B1 VL
fold change of affinity (Human CD137 ECD (human) [2]): 0 fold

B23: H183/L072 VH H35M (antibody, name in Kabat numbering, V domains shown)
VH: B1 VH with A29F, H35M
VL: B1 VL
fold change of affinity (Human CD137 ECD (human) [1]): 0 fold

B24: H183/L072 VH D52aI (antibody, name in Kabat numbering, V domains shown)
VH: B1 VH with A29F, D53I
VL: B1 VL
fold change of affinity (Human CD137 ECD (human) [1]): 0 fold

B25: H183/L072 VH W33P (antibody, name in Kabat numbering, V domains shown)
VH: B1 VH with A29F, W33P
VL: B1 VL
fold change of affinity (Human CD137 ECD (human) [1]): 0 fold

B26: H183/L072 VH Q50P (antibody, name in Kabat numbering, V domains shown)
VH: B1 VH with A29F, Q50P
VL: B1 VL
fold change of affinity (Human CD137 ECD (human) [1]): 0 fold

B27: dBBDu183H A100Y / dBBDu072L (antibody, name in Kabat numbering, V domains shown)
VH: B1 VH with A29F, A106Y
VL: B1 VL
fold change of affinity (Human CD137 ECD (human) [2]): 0 fold

B28: H183/L072 VH K52P (antibody, name in Kabat numbering, V domains shown)
VH: B1 VH with A29F, K52P
VL: B1 VL
fold change of affinity (Human CD137 ECD (human) [1]): 0 fold

B29: H183/L072 VH N53P (antibody, name in Kabat numbering, V domains shown)
VH: B1 VH with A29F, N56P
VL: B1 VL
fold change of affinity (Human CD137 ECD (human) [1]): 0 fold

B30: H183/L072 VH Y55I (antibody, name in Kabat numbering, V domains shown)
VH: B1 VH with A29F, Y58I
VL: B1 VL
fold change of affinity (Human CD137 ECD (human) [1]): 0 fold

B31: H183/L072 VH M34A (antibody, name in Kabat numbering, V domains shown)
VH: B1 VH with A29F, M34A
VL: B1 VL
fold change of affinity (Human CD137 ECD (human) [1]): 0 fold

B32: H183/L072 VH W33M (antibody, name in Kabat numbering, V domains shown)
VH: B1 VH with A29F, W33M
VL: B1 VL
fold change of affinity (Human CD137 ECD (human) [1]): 0 fold

B33: H183/L072 VH K52I (antibody, name in Kabat numbering, V domains shown)
VH: B1 VH with A29F, K52I
VL: B1 VL
fold change of affinity (Human CD137 ECD (human) [1]): 0 fold

B34: dBBDu183H A98Y / dBBDu072L (antibody, name in Kabat numbering, V domains shown)
VH: B1 VH with A29F, A104Y
VL: B1 VL
fold change of affinity (Human CD137 ECD (human) [2]): 0 fold

B35: H183/L072 VH H35I (antibody, name in Kabat numbering, V domains shown)
VH: B1 VH with A29F, H35I
VL: B1 VL
fold change of affinity (Human CD137 ECD (human) [1]): 0 fold

B36: H183/L072 VH N53A (antibody, name in Kabat numbering, V domains shown)
VH: B1 VH with A29F, N56A
VL: B1 VL
fold change of affinity (Human CD137 ECD (human) [1]): 0 fold

B37: H183/L072 VH H35L (antibody, name in Kabat numbering, V domains shown)
VH: B1 VH with A29F, H35L
VL: B1 VL
fold change of affinity (Human CD137 ECD (human) [1]): 0 fold

B38: H183/L072 VH D52aA (antibody, name in Kabat numbering, V domains shown)
VH: B1 VH with A29F, D53A
VL: B1 VL
fold change of affinity (Human CD137 ECD (human) [1]): 0 fold

B39: H183/L072 VH W33I (antibody, name in Kabat numbering, V domains shown)
VH: B1 VH with A29F, W33I
VL: B1 VL
fold change of affinity (Human CD137 ECD (human) [1]): 0 fold

B40: H183/L072 VH H35P (antibody, name in Kabat numbering, V domains shown)
VH: B1 VH with A29F, H35P
VL: B1 VL
fold change of affinity (Human CD137 ECD (human) [1]): 0 fold

B41: dBBDu183H P100eY / dBBDu072L (antibody, name in Kabat numbering, V domains shown)
VH: B1 VH with A29F, P111Y
VL: B1 VL
fold change of affinity (Human CD137 ECD (human) [2]): 0 fold

B42: H183/L072 VH D52aP (antibody, name in Kabat numbering, V domains shown)
VH: B1 VH with A29F, D53P
VL: B1 VL
fold change of affinity (Human CD137 ECD (human) [1]): 0 fold

B43: H183/L072 VH A57L (antibody, name in Kabat numbering, V domains shown)
VH: B1 VH with A29F, A60L
VL: B1 VL
fold change of affinity (Human CD137 ECD (human) [1]): 0 fold

B44: H183/L072 VH N53M (antibody, name in Kabat numbering, V domains shown)
VH: B1 VH with A29F, N56M
VL: B1 VL
fold change of affinity (Human CD137 ECD (human) [1]): 0 fold

B45: H183/L072 VH W33A (antibody, name in Kabat numbering, V domains shown)
VH: B1 VH with A29F, W33A
VL: B1 VL
fold change of affinity (Human CD137 ECD (human) [1]): 0 fold

B46: dBBDu183H L100dY / dBBDu072L (antibody, name in Kabat numbering, V domains shown)
VH: B1 VH with A29F, L110Y
VL: B1 VL
fold change of affinity (Human CD137 ECD (human) [2]): 0 fold

B47: dBBDu183H V63Y / dBBDu072L (antibody, name in Kabat numbering, V domains shown)
VH: B1 VH with A29F, V66Y
VL: B1 VL
fold change of affinity (Human CD137 ECD (human) [2]): 0 fold
